Reference: paper PMC11110392, “A first-in-class inhibitor of HSP110 to potentiate XPO1-targeted therapy in primary mediastinal B-cell lymphoma and classical Hodgkin lymphoma” (Journal of Experimental & Clinical Cancer Research : CR, 2024)

Biological target: T1, His-tagged HSP110 (recombinant) (UniProt Q92598 1-858, non-covalent RED-Tris-NTA 2nd generation dye on the His tag)
T1 construct: recombinant HSP110, OriGene TP307102; also called recombinant HSP110; TP307102; source: bought: OriGene (TP307102)
T1 sequence (Q92598 whole entry): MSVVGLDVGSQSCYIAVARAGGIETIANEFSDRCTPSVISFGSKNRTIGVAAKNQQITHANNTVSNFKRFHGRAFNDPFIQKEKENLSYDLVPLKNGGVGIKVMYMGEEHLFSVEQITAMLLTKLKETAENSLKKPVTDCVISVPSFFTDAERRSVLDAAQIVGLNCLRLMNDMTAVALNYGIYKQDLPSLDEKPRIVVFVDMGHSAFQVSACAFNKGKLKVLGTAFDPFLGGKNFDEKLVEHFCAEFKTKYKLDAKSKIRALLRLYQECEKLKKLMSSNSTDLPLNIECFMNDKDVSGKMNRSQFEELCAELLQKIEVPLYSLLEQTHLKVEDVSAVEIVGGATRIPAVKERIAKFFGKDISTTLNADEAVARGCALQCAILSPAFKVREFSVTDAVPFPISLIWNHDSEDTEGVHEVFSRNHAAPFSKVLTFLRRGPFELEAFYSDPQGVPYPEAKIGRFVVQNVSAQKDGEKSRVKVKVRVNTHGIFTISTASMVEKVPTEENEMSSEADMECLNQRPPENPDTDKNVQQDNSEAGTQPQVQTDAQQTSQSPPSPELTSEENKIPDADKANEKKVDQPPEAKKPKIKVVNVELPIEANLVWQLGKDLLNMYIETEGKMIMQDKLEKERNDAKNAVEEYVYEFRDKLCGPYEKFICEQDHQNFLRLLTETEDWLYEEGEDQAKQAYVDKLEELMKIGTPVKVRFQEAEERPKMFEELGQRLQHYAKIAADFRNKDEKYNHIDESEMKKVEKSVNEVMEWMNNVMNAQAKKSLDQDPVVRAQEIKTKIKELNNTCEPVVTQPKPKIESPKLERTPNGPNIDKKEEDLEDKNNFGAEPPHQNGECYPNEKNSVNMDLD
Assay: MST; Monolith NT.115; His-tagged HSP110 labelled with RED-Tris-NTA 2nd generation, fixed at 50 nM; STAT6 titrated from 2.39 µM to 0.07 nM
Details: both partners purified

B1: STAT6 (recombinant) (natural protein, UniProt P42226 1-847, looked up)
chain: MSLWGLVSKMPPEKVQRLYVDFPQHLRHLLGDWLESQPWEFLVGSDAFCCNLASALLSDTVQHLQASVGEQGEGSTILQHISTLESIYQRDPLKLVATFRQILQGEKKAVMEQFRHLPMPFHWKQEELKFKTGLRRLQHRVGEIHLLREALQKGAEAGQVSLHSLIETPANGTGPSEALAMLLQETTGELEAAKALVLKRIQIWKRQQQLAGNGAPFEESLAPLQERCESLVDIYSQLQQEVGAAGGELEPKTRASLTGRLDEVLRTLVTSCFLVEKQPPQVLKTQTKFQAGVRFLLGLRFLGAPAKPPLVRADMVTEKQARELSVPQGPGAGAESTGEIINNTVPLENSIPGNCCSALFKNLLLKKIKRCERKGTESVTEEKCAVLFSASFTLGPGKLPIQLQALSLPLVVIVHGNQDNNAKATILWDNAFSEMDRVPFVVAERVPWEKMCETLNLKFMAEVGTNRGLLPEHFLFLAQKIFNDNSLSMEAFQHRSVSWSQFNKEILLGRGFTFWQWFDGVLDLTKRCLRSYWSDRLIIGFISKQYVTSLLLNEPDGTFLLRFSDSEIGGITIAHVIRGQDGSPQIENIQPFSAKDLSIRSLGDRIRDLAQLKNLYPKKPKDEAFRSHYKPEQMGKDGRGYVPATIKMTVERDQPLPTPELQMPTMVPSYDLGMAPDSSMSMQLGPDMVPQVYPPHSHSIPPYQGLSPEESVNVLSAFQEPHLQMPPSLGQMSLPFDQPHPQGLLPCQPQEHAVSSPDPLLCSDVTMVEDSCLSQPVTAFPQGTWIGEDIFPPLLPPTEQDLTKLLLEGQGESGGGSLGAQPLLQPSHYGQSGISMSHMDLRANPSW
notes: recombinant STAT6, Abcam ab125625; also called recombinant STAT6; ab125625; source: bought: Abcam (ab125625)
- Kd: 26.7 ± 12.3 nM
